Results: the domain aggregation screens of Martell et al. (2025)

Assay: soluble fraction after stress (log2 fold change); higher = more stays soluble; pooled small domains, quantitative proteomics
Settings: stress: 50 degC
Outline: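 Pooled custom libraries of small protein domains were each held under stress at 50°C. The read-out, high-throughput quantitative proteomics, tracked how much of each protein stayed soluble. This is reported as a base-two log fold change used to indicate aggregation propensity. Higher values mean more protein remains in solution.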

Sequence	soluble fraction (log2)
HMLDQAVPVFETPKYAVSYIQNRLVEMKAASPEEAASRFYESISESERRGLFEALLIKEAEES	-0.00154
HMLDQGTQSRYQIMDGVRALITGDWSSHGAGLVRELSQEVARTSGLTATSERTFFVPFSALS	0.0364
HMLDSDARRRGLIEYLSLNGYATMRQLAGEFDVSINTIQRDITYLARYYPLETAYGRYGGGVYFEQNWQ	-1.56
HMLDSGNPILPYKLSLLANVDIRTVRNAISAGELVAFKSEFDGEVYVENGSARRWLHGRRGFKPTLK	-0.84
HMLDSNILTLIKELKIRHHFTATQTHQLEKVIQQAHALGLDNSEIRSLANSSPSAKSLINDLNQKLEPLRL	-0.398
HMLDTELEANLRSQRDQKLVEELDPIVTNPLRWAELTSDKQTEWTQYRTDLLNVPQQSGFPTNVTWPEKP	0.212
HMLDVFSAEQVADVLSVSKRNLETWANNGKLIPDFIHGEVALYSKKQLEQFEQFQRFFNSSWDAERLIQP	-0.947
HMLDVGDQLVKKLKDNDSLDFHFVNSKEANKGLKDGDYYMVITIPSNFSKNATTLLDKNPKKMVLNYTTNP	0.0441
HMLEAKQIQDNWESLIKLIEDNFTGERKENLLKMYTHFQDRMMFAPASSKEHFHNAFPGGYVEHVL	-0.293
HMLEDIDNSIKKEIILEHYDKMLEFHGDYGAIIFRKLLHAYSKGYTGANEFRDLVNQISDKNIMRDLIESF	-1.19
HMLEEIIDVKRFLVENVRGVSEKTALAILSEFGDKTMDVLRNSPNELYRIKGMSGKRIEVIKDAIANATAS	-0.275
HMLEINTIIGNNLKKIRQEKKLTLDELAGITGVSKGMLSQIEKGTTNPTINTIWKISNGLNVPYTYLLEDD	0.183
HMLENIVFTNKFKNKRLDVLLVDMKLVSSRQKAVSLIMRGNVFVEEERADKPGKIIKLNQTISLKK	-2.6
HMLERPLKLKSHYVSAINEKVAVQFQAGEERKSIMGTLTEVNQDTIVIDDRGSVTEIPFKSIIRAKTVF	0.258
HMLESPVEAIIRQIKQLITNGKLKPGDRLPAERLLAENFGVGRGYVREAIMKLEFFGLLKTSPQSGTYVAG	-0.748
HMLETIDIFKVTGGEPFLSKDFLEILDLAIEKDLAKNITLMITTNASKFVKKILDKFIHFKRVEFTVS	0.0202
HMLFGKKYLGKVPNDASGRISLWNDIVKHHQELQNIRAIENFTSDNVTVAQGDTKKAVVVTDYVT	-0.0557
HMLFQGDTPAENIILEILSKNGTTASDSIIKQSGLSVSDFNQAATMLEIKGLISNNGGNIWSL	0.0636
HMLFVKLSDAQRSMFGAKLARDARIQSEYAQKLPSENYEVFGKALADMLLDETHFKTFYPLLVEYGYTQPK	-0.406
HMLGDIYISIPRAKLQAEEYGHSFKRELAFLAVHGFYHLLGYDHQTKEEEEVMFGKQEEVLAEFDIKR	-0.218
HMLGKNEAKEYKVAYGDIGKMPALIMGLVPLPKPPVVDERLRTLYVTATPEQHREIEAIMNRI	0.156
HMLGKSNAERQLDLILGAIERSITGVSRSKLMQAYHLDSRGATAAFETLEQRGLITRSKSGRTELLIPTRV	-1.29
HMLGWEDVIQFEEVKGYGQHIWRDGNHLYYVTEEGGIAPQRVVYELPNELFALLESGERTQLEILSKLQ	-3.11
HMLHNEFINDRIQSAINNLSEHFKIVIILRDIQELSYEEISNIVEVPLGTIKSRINRARIQLQAELLDL	0.269
HMLILDTDGRYVIKRGDSLSEILEKIANGSNINLNLLKRAFVTANPKAFKRANPNWMYANAR	-0.113

Sequence	soluble fraction (log2)
HMLIPTISVTKEGQLRFENIPVSWEELGTRLRDVSDLDKIKIYADAESDALTISEIMKTAANVGIVQFVLV	-0.578
HMLIRKGVVSFFNDAKGYGFIKDLVTQESAFVHVNSLSETIKEHDKVTFEVEMGHKGANAVNVKLVK	-1.03
HMLIVLKPNVSQEEIDHIVDKIRSLSLEPHVSTGVQRTIITVIGDEDVIREQPLEALAGVESVKSILKP	-0.0145
HMLKGTVKWFNESKGFGFIEQEEGKDVFVHYSAITGSGFKTLNEGDKVQFEIVDGPKGPAAANVSK	-0.0666
HMLKKGDQVYIISGKDKGKLGVVSQIVSEERILVDGINLAKKHVKPNPNKNETGGVVEKEMPIHASNVMI	-0.0911
HMLKLTDRQKVILSILMSDGEKTASWIASQLGVGLRSVQLDLSYLRNNGFIKKASKSTHSAWIVLKK	-2.5
HMLKPIHKDWSPNGDAKEILLKAGITEEFIQKELPEFIMYWSERNEESDIWNSKFIAHIRRRWGRFS	-1.14
HMLKPVVLLGARGLTDAVEKEVERALDEHGLIKIHVPSDDREERDEIYTTLADKLNAARIQAIGKMLVLW	-0.162
HMLKSGSAVAQARDVILEKGVPVHINEILDALGKGDTREAKASLTSSLAAYVRRGEIFTRPAPNTFGLVEL	-0.372
HMLKTADAIASVLLTRIQAGEFSAGRLPAERALSEAFSTTRITLREALGKLEAQGMIYRELRRGWFIA	-1.76
HMLLFNPGEVLKGFVLQSGTNNRVLLQIGDSRVIADTQTPLKAGEQLVLRVEETGPKTILQILG	0.101
HMLLGDYIQKLRNQRGLSQQEFADKLGIGRSTLANYEQNKRSPDYETLIEISKFFNVSIDELLGV	-0.484
HMLLLASTPAEQTIIQLLAEGWRDGDQLQQRSHLSAADFSTALTMLEVNGSIKPLGANHWALTH	-0.919
HMLLPANLTKSQRNIAERVARGQSNLEIAADLNITERTVKAHLTSIYEKTKTGNRLNLALLINLG	-0.442
HMLLPGEELRVMIIQEGKEYGQGVGYLDDGTMVVVEDGQRALNRTENVVVTKVLQTTAGRMIFAK	-0.631
HMLLQENRKLHSKLEELQLISRAKAVLIEYLKLTEPQAHRYIEKQAMDLGLTRPQVALNILKTYE	-0.202
HMLLQTAVISTDIVNMRAEPTTNSSVIRKLTKGSDITINQEKDGWYKISDDQGNSGWIVTWAAKPT	0.0497
HMLMDVRVPDIIGVEINQAKEILTASSLLIGKITYVSLPEIEKDLVIETSVLAGRRVSAGTVIDITVNKE	-0.76
HMLMKPQKTRDVLRYLKSIGWVRLRGGQGSHEIWGLPDGSIRAVIPAGHREISAGVLMQLKRAGVDVPTQW	-0.557
HMLMLTPGQIAQTLDVSTATVRRWSARYARHLSPNTPGKKRSYTVDDLAVLTRVRDLSATGTPLAQIDQAL	-2.02
HMLMLTPGQVSNSLNVSTATVRRWSARFARHLSPQPPNRKRSYTPDDLATLARVRDLSASGTSLAQIDIAL	-2.51
HMLMRSPDFLIGWFQNLVAKRETFNDQVQAKNLIEAGKQHIQGEDFDRLLEVNRRLFSLLPQREQE	0.215
HMLNAPFGFRIEDDTLIPIPEEAKVVRQIFRYYLQGMGFGKIAQELNGQDVPGKPWGKERIKYILSNEKYI	-2.09
HMLNERQKKIIKILKDNKNWMTGKELSEFLNVSDRTIRSDIEYINRYNNALIESNVKNGYHLNFE	0.12
HMLNIVTIFEEQFGRPLSPIELNIIKDWKESDYSDEMIVKALKEAVKSQVLNFRYVEGILNNWAKNG	-0.568
